Results taken from publication PMC3078058 (Nature, 2011).

B1: CusA inner membrane RND efflux pump (natural protein, Escherichia coli, UniProt P38054 1-1047, looked up)
chain: MIEWIIRRSVANRFLVLMGALFLSIWGTWTIINTPVDALPDLSDVQVIIKTSYPGQAPQIVENQVTYPLTTTMLSVPGAKTVRGFSQFGDSYVYVIFEDGTDPYWARSRVLEYLNQVQGKLPAGVSAELGPDATGVGWIYEYALVDRSGKHDLADLRSLQDWFLKYELKTIPDVAEVASVGGVVKEYQVVIDPQRLAQYGISLAEVKSALDASNQEAGGSSIELAEAEYMVRASGYLQTLDDFNHIVLKASENGVPVYLRDVAKVQIGPEMRRGIAELNGEGEVAGGVVILRSGKNAREVIAAVKDKLETLKSSLPEGVEIVTTYDRSQLIDRAIDNLSGKLLEEFIVVAVVCALFLWHVRSALVAIISLPLGLCIAFIVMHFQGLNANIMSLGGIAIAVGAMVDAAIVMIENAHKRLEEWQHQHPDATLDNKTRWQVITDASVEVGPALFISLLIITLSFIPIFTLEGQEGRLFGPLAFTKTYAMAGAALLAIVVIPILMGYWIRGKIPPESSNPLNRFLIRVYHPLLLKVLHWPKTTLLVAALSVLTVLWPLNKVGGEFLPQINEGDLLYMPSTLPGISAAEAASMLQKTDKLIMSVPEVARVFGKTGKAETATDSAPLEMVETTIQLKPQEQWRPGMTMDKIIEELDNTVRLPGLANLWVPPIRNRIDMLSTGIKSPIGIKVSGTVLADIDAMAEQIEEVARTVPGVASALAERLEGGRYINVEINREKAARYGMTVADVQLFVTSAVGGAMVGETVEGIARYPINLRYPQSWRDSPQALRQLPILTPMKQQITLADVADIKVSTGPSMLKTENARPTSWIYIDARDRDMVSVVHDLQKAIAEKVQLKPGTSVAFSGQFELLERANHKLKLMVPMTLMIIFVLLYLAFRRVGEALLIISSVPFALVGGIWLLWWMGFHLSVATGTGFIALAGVAAEFGVVMLMYLRHAIEAVPSLNNPQTFSEQKLDEALYHGAVLRVRPKAMTVAVIIAGLLPILWGTGAGSEVMSRIAAPMIGGMITAPLLSLFIIPAAYKLMWLHRHRVRK
B2: CusB membrane fusion protein (natural protein, Escherichia coli, UniProt P77239 29-407, looked up)
chain: EPPAEKTSTAERKILFWYDPMYPNTRFDKPGKSPFMDMDLVPKYADEESSASGVRIDPTQTQNLGVKTATVTRGPLTFAQSFPANVSYNEYQYAIVQARAAGFIDKVYPLTVGDKVQKGTPLLDLTIPDWVEAQSEYLLLRETGGTATQTEGILERLRLAGMPEADIRRLIATQKIQTRFTLKAPIDGVITAFDLRAGMNIAKDNVVAKIQGMDPVWVTAAIPESIAWLVKDASQFTLTVPARPDKTLTIRKWTLLPGVDAATRTLQLRLEVDNADEALKPGMNAWLQLNTASEPMLLIPSQALIDTGSEQRVITVDADGRFVPKRVAVFQASQGVTALRSGLAEGEKVVSSGLFLIDSEANISGALERMRSESATHAH

Key:
crystal structure = biological target: the molecule itself; test: crystal structure
[1] = biological target: B1; test: ITC

| Binder | stoichiometry N (crystal structure) | Kd [1] [µM] |
| --- | --- | --- |
| B1 | 3 |  |
| B2 | 6 | 5.1 ± 0.3 |
